Test results taken from patent publication US20180016318A1 (Eli Lilly, published 2018).
Starred links: 1 amine or outer side, 2 acyl side, 3 side chain; linkers in the order of their positions; H or OH if unused. Non-standard residues stand in square brackets, D forms with d. Groups on a side chain read outwards from the residue. No end group written: not given here. *: point of attachment. C20 diacid = O=C(O)CCCCCCCCCCCCCCCCCCC(=O)*; C18 diacid = O=C(O)CCCCCCCCCCCCCCCCC(=O)*; γGlu = O=C(O)[C@H](CCC(=O)[*:2])N[*:1]; NMeI = CC[C@H](C)[C@H](NC)C(=O)O; AEEA = NCCOCCOCC(=O)O

T1: human CRHR1 (corticotropin releasing hormone receptor-1) (human, UniProt P34998 24-415)
T1 sequence (looked up): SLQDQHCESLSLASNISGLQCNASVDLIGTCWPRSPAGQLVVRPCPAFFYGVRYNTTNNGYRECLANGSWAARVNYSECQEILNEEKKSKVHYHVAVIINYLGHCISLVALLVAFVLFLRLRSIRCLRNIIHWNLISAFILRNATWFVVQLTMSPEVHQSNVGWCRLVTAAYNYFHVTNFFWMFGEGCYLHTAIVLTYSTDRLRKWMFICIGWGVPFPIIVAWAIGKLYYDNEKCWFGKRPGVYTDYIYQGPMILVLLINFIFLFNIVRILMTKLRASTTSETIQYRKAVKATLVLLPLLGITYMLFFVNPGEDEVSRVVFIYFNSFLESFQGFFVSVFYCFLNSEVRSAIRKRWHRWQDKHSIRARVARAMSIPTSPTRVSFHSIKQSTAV


target: T1, human CRHR1 (corticotropin releasing …); assay: cell-based or functional assay

| Molecule | Average EC50 (nM), cell-based cAMP assay, Y79 cells with endogenous human CRHR1 [nM] |
| --- | --- |
| [NMeI]VLSLDVPIGLLQILLEQEKQEKEKQQAK([AEEA-AEEA-γGlu-γGlu-C18 diacid])TNAQILAQV-NH2 (N-terminus assumed; SMILES CC[C@H](C)[C@H](NC)C(=O)N[C@H](C(=O)N[C@@H](CC(C)C)C(=O)N[C@@H](CO)C(=O)N[C@@H](CC(C)C)C(=O)N[C@@H](CC(=O)O)C(=O)N[C@H](C(=O)N1CCC[C@H]1C(=O)N[C@H](C(=O)NCC(=O)N[C@@H](CC(C)C)C(=O)N[C@@H](CC(C)C)C(=O)N[C@@H](CCC(N)=O)C(=O)N[C@H](C(=O)N[C@@H](CC(C)C)C(=O)N[C@@H](CC(C)C)C(=O)N[C@@H](CCC(=O)O)C(=O)N[C@@H](CCC(N)=O)C(=O)N[C@@H](CCC(=O)O)C(=O)N[C@@H](CCCCN)C(=O)N[C@@H](CCC(N)=O)C(=O)N[C@@H](CCC(=O)O)C(=O)N[C@@H](CCCCN)C(=O)N[C@@H](CCC(=O)O)C(=O)N[C@@H](CCCCN)C(=O)N[C@@H](CCC(N)=O)C(=O)N[C@@H](CCC(N)=O)C(=O)N[C@@H](C)C(=O)N[C@@H](CCCCNC(=O)COCCOCCNC(=O)COCCOCCNC(=O)CC[C@H](NC(=O)CC[C@H](NC(=O)CCCCCCCCCCCCCCCCC(=O)O)C(=O)O)C(=O)O)C(=O)N[C@H](C(=O)N[C@@H](CC(N)=O)C(=O)N[C@@H](C)C(=O)N[C@@H](CCC(N)=O)C(=O)N[C@H](C(=O)N[C@@H](CC(C)C)C(=O)N[C@@H](C)C(=O)N[C@@H](CCC(N)=O)C(=O)N[C@H](C(N)=O)C(C)C)[C@@H](C)CC)[C@@H](C)O)[C@@H](C)CC)[C@@H](C)CC)C(C)C)C(C)C) [Example 3 (SEQ ID NO: 3)] | > 100000 |
| [NMeI]VLSLDVPIGLLQILLEQEKQEKEKQQAK([AEEA-AEEA-γGlu-γGlu-C20 diacid])TNAQILAQV-NH2 [Example 4 (SEQ ID NO: 4)] | > 100000 |
| [NMeI]VTSLDVPIGLLQILLEQEKQEKEKQQAK([AEEA-AEEA-γGlu-γGlu-C20 diacid])TNAEILAQV-NH2 [Example 5 (SEQ ID NO: 5)] | 33900 |
| Ac-IVLSLDVPIGLLQILLEQEKQEKEKQQAK([AEEA-AEEA-γGlu-γGlu-C20 diacid])TNAQILAQV-NH2 [Example 2 (SEQ ID NO: 2)] | > 10000 |
| [NMeI]VLSLDVPIGLLQILLEQEKQEKEKQQAK([AEEA-AEEA-γGlu-γGlu-C20 diacid])TNAEILAQV-NH2 (N-terminus assumed; SMILES CC[C@H](C)[C@H](NC)C(=O)N[C@H](C(=O)N[C@@H](CC(C)C)C(=O)N[C@@H](CO)C(=O)N[C@@H](CC(C)C)C(=O)N[C@@H](CC(=O)O)C(=O)N[C@H](C(=O)N1CCC[C@H]1C(=O)N[C@H](C(=O)NCC(=O)N[C@@H](CC(C)C)C(=O)N[C@@H](CC(C)C)C(=O)N[C@@H](CCC(N)=O)C(=O)N[C@H](C(=O)N[C@@H](CC(C)C)C(=O)N[C@@H](CC(C)C)C(=O)N[C@@H](CCC(=O)O)C(=O)N[C@@H](CCC(N)=O)C(=O)N[C@@H](CCC(=O)O)C(=O)N[C@@H](CCCCN)C(=O)N[C@@H](CCC(N)=O)C(=O)N[C@@H](CCC(=O)O)C(=O)N[C@@H](CCCCN)C(=O)N[C@@H](CCC(=O)O)C(=O)N[C@@H](CCCCN)C(=O)N[C@@H](CCC(N)=O)C(=O)N[C@@H](CCC(N)=O)C(=O)N[C@@H](C)C(=O)N[C@@H](CCCCNC(=O)COCCOCCNC(=O)COCCOCCNC(=O)CC[C@H](NC(=O)CC[C@H](NC(=O)CCCCCCCCCCCCCCCCCCC(=O)O)C(=O)O)C(=O)O)C(=O)N[C@H](C(=O)N[C@@H](CC(N)=O)C(=O)N[C@@H](C)C(=O)N[C@@H](CCC(=O)O)C(=O)N[C@H](C(=O)N[C@@H](CC(C)C)C(=O)N[C@@H](C)C(=O)N[C@@H](CCC(N)=O)C(=O)N[C@H](C(N)=O)C(C)C)[C@@H](C)CC)[C@@H](C)O)[C@@H](C)CC)[C@@H](C)CC)C(C)C)C(C)C) [Example 6 (SEQ ID NO: 6)] | > 100000 |
| [NMeI]VTSLDVPIGLLQILIEQEKQEKEKQQAK([AEEA-AEEA-γGlu-γGlu-C20 diacid])TNAEILAQV-NH2 (N-terminus assumed; SMILES CC[C@H](C)[C@H](NC)C(=O)N[C@H](C(=O)N[C@H](C(=O)N[C@@H](CO)C(=O)N[C@@H](CC(C)C)C(=O)N[C@@H](CC(=O)O)C(=O)N[C@H](C(=O)N1CCC[C@H]1C(=O)N[C@H](C(=O)NCC(=O)N[C@@H](CC(C)C)C(=O)N[C@@H](CC(C)C)C(=O)N[C@@H](CCC(N)=O)C(=O)N[C@H](C(=O)N[C@@H](CC(C)C)C(=O)N[C@H](C(=O)N[C@@H](CCC(=O)O)C(=O)N[C@@H](CCC(N)=O)C(=O)N[C@@H](CCC(=O)O)C(=O)N[C@@H](CCCCN)C(=O)N[C@@H](CCC(N)=O)C(=O)N[C@@H](CCC(=O)O)C(=O)N[C@@H](CCCCN)C(=O)N[C@@H](CCC(=O)O)C(=O)N[C@@H](CCCCN)C(=O)N[C@@H](CCC(N)=O)C(=O)N[C@@H](CCC(N)=O)C(=O)N[C@@H](C)C(=O)N[C@@H](CCCCNC(=O)COCCOCCNC(=O)COCCOCCNC(=O)CC[C@H](NC(=O)CC[C@H](NC(=O)CCCCCCCCCCCCCCCCCCC(=O)O)C(=O)O)C(=O)O)C(=O)N[C@H](C(=O)N[C@@H](CC(N)=O)C(=O)N[C@@H](C)C(=O)N[C@@H](CCC(=O)O)C(=O)N[C@H](C(=O)N[C@@H](CC(C)C)C(=O)N[C@@H](C)C(=O)N[C@@H](CCC(N)=O)C(=O)N[C@H](C(N)=O)C(C)C)[C@@H](C)CC)[C@@H](C)O)[C@@H](C)CC)[C@@H](C)CC)[C@@H](C)CC)C(C)C)[C@@H](C)O)C(C)C) [Example 7 (SEQ ID NO: 7)] | ~100000 |
| IVLSLDVPIGLLQILLEQARARAAREQATTNARILARV-NH2 (ligand) [human UCN2 (urocortin-2)] | > 100000 |
| Ac-IVLSLDVPIGLLQILLEQEKQEKEKQQAK([AEEA-AEEA-γGlu-γGlu-C18 diacid])TNAQILAQV-NH2 (SMILES CC[C@H](C)[C@H](NC(C)=O)C(=O)N[C@H](C(=O)N[C@@H](CC(C)C)C(=O)N[C@@H](CO)C(=O)N[C@@H](CC(C)C)C(=O)N[C@@H](CC(=O)O)C(=O)N[C@H](C(=O)N1CCC[C@H]1C(=O)N[C@H](C(=O)NCC(=O)N[C@@H](CC(C)C)C(=O)N[C@@H](CC(C)C)C(=O)N[C@@H](CCC(N)=O)C(=O)N[C@H](C(=O)N[C@@H](CC(C)C)C(=O)N[C@@H](CC(C)C)C(=O)N[C@@H](CCC(=O)O)C(=O)N[C@@H](CCC(N)=O)C(=O)N[C@@H](CCC(=O)O)C(=O)N[C@@H](CCCCN)C(=O)N[C@@H](CCC(N)=O)C(=O)N[C@@H](CCC(=O)O)C(=O)N[C@@H](CCCCN)C(=O)N[C@@H](CCC(=O)O)C(=O)N[C@@H](CCCCN)C(=O)N[C@@H](CCC(N)=O)C(=O)N[C@@H](CCC(N)=O)C(=O)N[C@@H](C)C(=O)N[C@@H](CCCCNC(=O)COCCOCCNC(=O)COCCOCCNC(=O)CC[C@H](NC(=O)CC[C@H](NC(=O)CCCCCCCCCCCCCCCCC(=O)O)C(=O)O)C(=O)O)C(=O)N[C@H](C(=O)N[C@@H](CC(N)=O)C(=O)N[C@@H](C)C(=O)N[C@@H](CCC(N)=O)C(=O)N[C@H](C(=O)N[C@@H](CC(C)C)C(=O)N[C@@H](C)C(=O)N[C@@H](CCC(N)=O)C(=O)N[C@H](C(N)=O)C(C)C)[C@@H](C)CC)[C@@H](C)O)[C@@H](C)CC)[C@@H](C)CC)C(C)C)C(C)C) [Example 1 (SEQ ID NO: 1)] | ~10000 |

target: human CRHR1 (corticotropin releasing hormone receptor-1) (human) (UniProt P34998); assay: cell-based or functional assay

| Molecule | Average EC50 (nM), cell-based cAMP assay, Y79 cells with endogenous human CRHR1 [nM] |
| --- | --- |
| human UCN1 (urocortin-1) (from UniProt P55089 83-122) (ligand) | 7.3 |
